From article PMC11461620 (Nature Communications, 2024)

Target: the molecule itself
Test: crystal structure

B1: β-barrel domain of E. coli BamA (residues 426–810) (domain or fragment)
chain: not shown
modifications: biotin (EZ-Link NHS-PEG4-Biotin, chemical) in the SPR experiment only
  binding result: binds
